The results in this text go back to paper PMC4874776.

Experiment [1] addresses reg-FSFG, an artificially designed regular FSFG domain with 16 repetitions of the sequence … and an N-terminal His14-TEV tag. Nature of the experiment: spectroscopic ellipsometry; NTF2 and NTF2 W7A mutant sequentially exposed to FG domain films (5-13 pmol/cm^2), equilibrium bound amounts by SE, two to four measurements per FG domain type; native NTF2 on a reg-SSSG film (8.3 pmol/cm^2) as control.

Experiment [2] concerns the target glycosylated FG domain of Nup98 from Xenopus tropicalis (Nup98-glyco), amino acids 1 to 485, with an N-terminal His14-TEV tag (X. tropicalis). The description is as above.
The target in experiment [3] is reg-FSFG, an artificially designed regular FSFG domain with 16 repetitions of the sequence … and an N-terminal His14-TEV tag. Nature of the experiment: spectroscopic ellipsometry + QCM-D; FG domain end-grafted through its His tag (4-11 pmol/cm^2) on His tag capturing QCM-D sensors (NTF2 with Nsp1) or on Ni2+-NTA supported lipid bilayers (Nup98-glyco, reg-FSFG, Impβ with Nsp1); NTR titrated in solution from 0.0025 to 10 uM, equilibrium bound amounts by SE; 10 mM Hepes pH 7.4, 150 mM NaCl, 23 °C; linear fit at cNTR <= 0.05 uM, Hill equation at 0.05-10 uM.

For experiment [4], the target named is glycosylated FG domain of Nup98 from Xenopus tropicalis (Nup98-glyco), amino acids 1 to 485, with an N-terminal His14-TEV tag (X. tropicalis). The experiment is described as above.

Bounds are passed on as bounds.

Take “W7A mutant of NTF2 (from UniProt P61970 1-127) (receptor)”: the reduction of the equilibrium bound amount against native NTF2 in experiment [1] and in experiment [2] was > 80% throughout.
For “nuclear transport factor 2 from Homo sapiens (NTF2) (from UniProt P61970 1-127) (receptor)”, the FG motifs in the film per bound NTR at cNTR = 10 uM (FG motifs per bound NTF2 dimer) in experiment [3] and in experiment [4] was > 10 each time.
